For 14 molecules, IC50 results are on record in US20140294898A1 (published 2014).

B1: Compound No. 70 (peptide)
peptide: {CH2CO}-F[NMeA]NPHL[Sar]WSW[dNle][NMeNle]RCG-NH2
modifications: thioether N-14
SMILES: CCCC[C@H]1NC(=O)[C@H](Cc2c[nH]c3ccccc23)NC(=O)[C@H](CO)NC(=O)[C@H](Cc2c[nH]c3ccccc23)NC(=O)CN(C)C(=O)[C@H](CC(C)C)NC(=O)[C@H](Cc2c[nH]cn2)NC(=O)[C@@H]2CCCN2C(=O)[C@H](CC(N)=O)NC(=O)[C@H](C)N(C)C(=O)[C@H](Cc2ccccc2)NC(=O)CSC[C@@H](C(=O)NCC(N)=O)NC(=O)[C@H](CCCNC(=N)N)NC(=O)[C@H](CCCC)N(C)C1=O
notes: macrocyclic peptide cyclized via the ClAc moiety with the downstream cysteine
B2: Compound No. 63 (peptide)
peptide: {CH2CO}-F[NMeA]NPHL[Sar]WSL[NMeNle][NMeNle]RCG-NH2
modifications: thioether N-14
SMILES: CCCC[C@H]1C(=O)N(C)[C@@H](CCCC)C(=O)N[C@@H](CCCNC(=N)N)C(=O)N[C@H](C(=O)NCC(N)=O)CSCC(=O)N[C@@H](Cc2ccccc2)C(=O)N(C)[C@@H](C)C(=O)N[C@@H](CC(N)=O)C(=O)N2CCC[C@H]2C(=O)N[C@@H](Cc2c[nH]cn2)C(=O)N[C@@H](CC(C)C)C(=O)N(C)CC(=O)N[C@@H](Cc2c[nH]c3ccccc23)C(=O)N[C@@H](CO)C(=O)N[C@@H](CC(C)C)C(=O)N1C
notes: as for B1
B3: Compound No. 54 (peptide)
peptide: {CH2CO}-F[NMeA]NPHLRWSW[NMeNle][NMeNle]RCG-NH2
modifications: thioether N-14
SMILES: CCCC[C@H]1C(=O)N(C)[C@@H](CCCC)C(=O)N[C@@H](CCCNC(=N)N)C(=O)N[C@H](C(=O)NCC(N)=O)CSCC(=O)N[C@@H](Cc2ccccc2)C(=O)N(C)[C@@H](C)C(=O)N[C@@H](CC(N)=O)C(=O)N2CCC[C@H]2C(=O)N[C@@H](Cc2c[nH]cn2)C(=O)N[C@@H](CC(C)C)C(=O)N[C@@H](CCCNC(=N)N)C(=O)N[C@@H](Cc2c[nH]c3ccccc23)C(=O)N[C@@H](CO)C(=O)N[C@@H](Cc2c[nH]c3ccccc23)C(=O)N1C
notes: as for B1
B4: Compound No. 53 (peptide)
peptide: {CH2CO}-F[NMeA]NPHLHWSW[NMeNle][NMeNle]RCG-NH2
modifications: thioether N-14
SMILES: CCCC[C@H]1C(=O)N(C)[C@@H](CCCC)C(=O)N[C@@H](CCCNC(=N)N)C(=O)N[C@H](C(=O)NCC(N)=O)CSCC(=O)N[C@@H](Cc2ccccc2)C(=O)N(C)[C@@H](C)C(=O)N[C@@H](CC(N)=O)C(=O)N2CCC[C@H]2C(=O)N[C@@H](Cc2c[nH]cn2)C(=O)N[C@@H](CC(C)C)C(=O)N[C@@H](Cc2c[nH]cn2)C(=O)N[C@@H](Cc2c[nH]c3ccccc23)C(=O)N[C@@H](CO)C(=O)N[C@@H](Cc2c[nH]c3ccccc23)C(=O)N1C
notes: as for B1
B5: Compound No. 56 (peptide)
peptide: {CH2CO}-F[NMeA]NPHL[NMeS]WSW[NMeNle][NMeNle]RCG-NH2
modifications: thioether N-14
SMILES: CCCC[C@H]1C(=O)N(C)[C@@H](CCCC)C(=O)N[C@@H](CCCNC(=N)N)C(=O)N[C@H](C(=O)NCC(N)=O)CSCC(=O)N[C@@H](Cc2ccccc2)C(=O)N(C)[C@@H](C)C(=O)N[C@@H](CC(N)=O)C(=O)N2CCC[C@H]2C(=O)N[C@@H](Cc2c[nH]cn2)C(=O)N[C@@H](CC(C)C)C(=O)N(C)[C@@H](CO)C(=O)N[C@@H](Cc2c[nH]c3ccccc23)C(=O)N[C@@H](CO)C(=O)N[C@@H](Cc2c[nH]c3ccccc23)C(=O)N1C
notes: as for B1
B6: Compound No. 61 (peptide)
peptide: {CH2CO}-F[NMeA]NPHL[Sar]WSM[NMeNle][NMeNle]RCG-NH2
modifications: thioether N-14
SMILES: CCCC[C@H]1C(=O)N(C)[C@@H](CCCC)C(=O)N[C@@H](CCCNC(=N)N)C(=O)N[C@H](C(=O)NCC(N)=O)CSCC(=O)N[C@@H](Cc2ccccc2)C(=O)N(C)[C@@H](C)C(=O)N[C@@H](CC(N)=O)C(=O)N2CCC[C@H]2C(=O)N[C@@H](Cc2c[nH]cn2)C(=O)N[C@@H](CC(C)C)C(=O)N(C)CC(=O)N[C@@H](Cc2c[nH]c3ccccc23)C(=O)N[C@@H](CO)C(=O)N[C@@H](CCSC)C(=O)N1C
notes: as for B1
B7: Compound No. 62 (peptide)
peptide: {CH2CO}-F[NMeA]NPHL[Sar]WSI[NMeNle][NMeNle]RCG-NH2
modifications: thioether N-14
SMILES: CCCC[C@H]1C(=O)N(C)[C@@H](CCCC)C(=O)N[C@@H](CCCNC(=N)N)C(=O)N[C@H](C(=O)NCC(N)=O)CSCC(=O)N[C@@H](Cc2ccccc2)C(=O)N(C)[C@@H](C)C(=O)N[C@@H](CC(N)=O)C(=O)N2CCC[C@H]2C(=O)N[C@@H](Cc2c[nH]cn2)C(=O)N[C@@H](CC(C)C)C(=O)N(C)CC(=O)N[C@@H](Cc2c[nH]c3ccccc23)C(=O)N[C@@H](CO)C(=O)N[C@@H]([C@@H](C)CC)C(=O)N1C
notes: as for B1
B8: Compound No. 55 (peptide)
peptide: {CH2CO}-F[NMeA]NPHLPWSW[NMeNle][NMeNle]RCG-NH2
modifications: thioether N-14
SMILES: CCCC[C@H]1C(=O)N(C)[C@@H](CCCC)C(=O)N[C@@H](CCCNC(=N)N)C(=O)N[C@H](C(=O)NCC(N)=O)CSCC(=O)N[C@@H](Cc2ccccc2)C(=O)N(C)[C@@H](C)C(=O)N[C@@H](CC(N)=O)C(=O)N2CCC[C@H]2C(=O)N[C@@H](Cc2c[nH]cn2)C(=O)N[C@@H](CC(C)C)C(=O)N2CCC[C@H]2C(=O)N[C@@H](Cc2c[nH]c3ccccc23)C(=O)N[C@@H](CO)C(=O)N[C@@H](Cc2c[nH]c3ccccc23)C(=O)N1C
notes: as for B1
B9: Compound No. 51 (peptide)
peptide: {CH2CO}-F[NMeA]NPHD[Sar]WSW[NMeNle][NMeNle]RCG-NH2
modifications: thioether N-14
SMILES: CCCC[C@H]1C(=O)N(C)[C@@H](CCCC)C(=O)N[C@@H](CCCNC(=N)N)C(=O)N[C@H](C(=O)NCC(N)=O)CSCC(=O)N[C@@H](Cc2ccccc2)C(=O)N(C)[C@@H](C)C(=O)N[C@@H](CC(N)=O)C(=O)N2CCC[C@H]2C(=O)N[C@@H](Cc2c[nH]cn2)C(=O)N[C@@H](CC(=O)O)C(=O)N(C)CC(=O)N[C@@H](Cc2c[nH]c3ccccc23)C(=O)N[C@@H](CO)C(=O)N[C@@H](Cc2c[nH]c3ccccc23)C(=O)N1C
notes: as for B1
B10: Compound No. 66 (peptide)
peptide: FANPHLGWSWSXRCG
HELM: PEPTIDE1{[O=C(C[*:3])[*:2]].F.[meA].N.P.H.L.[Sar].W.S.W.[meS].[CCCC[C@@H](C(=O)[*:2])N(C)[*:1]].R.C.G.[am]}$PEPTIDE1,PEPTIDE1,1:R3-15:R3$$$V2.0
SMILES: CCCC[C@H]1C(=O)N[C@@H](CCCNC(=N)N)C(=O)N[C@H](C(=O)NCC(N)=O)CSCC(=O)N[C@@H](Cc2ccccc2)C(=O)N(C)[C@@H](C)C(=O)N[C@@H](CC(N)=O)C(=O)N2CCC[C@H]2C(=O)N[C@@H](Cc2c[nH]cn2)C(=O)N[C@@H](CC(C)C)C(=O)N(C)CC(=O)N[C@@H](Cc2c[nH]c3ccccc23)C(=O)N[C@@H](CO)C(=O)N[C@@H](Cc2c[nH]c3ccccc23)C(=O)N(C)[C@@H](CO)C(=O)N1C
notes: as for B1
B11: Compound No. 65 (peptide)
peptide: FANPHLGWSWLXRCG
HELM: PEPTIDE1{[O=C(C[*:3])[*:2]].F.[meA].N.P.H.L.[Sar].W.S.W.[meL].[CCCC[C@@H](C(=O)[*:2])N(C)[*:1]].R.C.G.[am]}$PEPTIDE1,PEPTIDE1,1:R3-15:R3$$$V2.0
SMILES: CCCC[C@H]1C(=O)N[C@@H](CCCNC(=N)N)C(=O)N[C@H](C(=O)NCC(N)=O)CSCC(=O)N[C@@H](Cc2ccccc2)C(=O)N(C)[C@@H](C)C(=O)N[C@@H](CC(N)=O)C(=O)N2CCC[C@H]2C(=O)N[C@@H](Cc2c[nH]cn2)C(=O)N[C@@H](CC(C)C)C(=O)N(C)CC(=O)N[C@@H](Cc2c[nH]c3ccccc23)C(=O)N[C@@H](CO)C(=O)N[C@@H](Cc2c[nH]c3ccccc23)C(=O)N(C)[C@@H](CC(C)C)C(=O)N1C
notes: as for B1
B12: Compound No. 64 (peptide)
peptide: {CH2CO}-F[NMeA]NPHL[Sar]WS[Bta][NMeNle][NMeNle]RCG-NH2
modifications: thioether N-14
SMILES: CCCC[C@H]1C(=O)N(C)[C@@H](CCCC)C(=O)N[C@@H](CCCNC(=N)N)C(=O)N[C@H](C(=O)NCC(N)=O)CSCC(=O)N[C@@H](Cc2ccccc2)C(=O)N(C)[C@@H](C)C(=O)N[C@@H](CC(N)=O)C(=O)N2CCC[C@H]2C(=O)N[C@@H](Cc2c[nH]cn2)C(=O)N[C@@H](CC(C)C)C(=O)N(C)CC(=O)N[C@@H](Cc2c[nH]c3ccccc23)C(=O)N[C@@H](CO)C(=O)N[C@@H](Cc2csc3ccccc23)C(=O)N1C
notes: as for B1
B13: Compound No. 60 (peptide)
peptide: {CH2CO}-F[NMeA]NPHL[Sar]WAW[NMeNle][NMeNle]ACG-NH2
modifications: thioether N-14
SMILES: CCCC[C@H]1C(=O)N(C)[C@@H](CCCC)C(=O)N[C@@H](C)C(=O)N[C@H](C(=O)NCC(N)=O)CSCC(=O)N[C@@H](Cc2ccccc2)C(=O)N(C)[C@@H](C)C(=O)N[C@@H](CC(N)=O)C(=O)N2CCC[C@H]2C(=O)N[C@@H](Cc2c[nH]cn2)C(=O)N[C@@H](CC(C)C)C(=O)N(C)CC(=O)N[C@@H](Cc2c[nH]c3ccccc23)C(=O)N[C@@H](C)C(=O)N[C@@H](Cc2c[nH]c3ccccc23)C(=O)N1C
notes: as for B1
B14: Compound No. 52 (peptide)
peptide: FANPHLXWSWXXRCG
modifications: N-terminal chloroacetyl (ClAc) on residue 1 cyclized as thioether with Cys14; N-methyl-Ala (mAla) at 2; Dab (2,4-diaminobutyric acid, written X) at 7; N-methyl-norleucine (mNle, written X) at 11 and 12; C-terminal amide (NH2)
notes: as for B1

Positions of bridges follow the written chain, without caps; N, C: chain ends. Non-standard residues stand in square brackets, D forms with d. Bta = N[C@@H](Cc1csc2ccccc12)C(=O)O; NMeNle = CCCC[C@H](NC)C(=O)O; dNle = CCCC[C@@H](N)C(=O)O; NMeS = CN[C@@H](CO)C(=O)O; NMeA = CN[C@@H](C)C(=O)O; Sar = CNCC(=O)O

T1 sequence (Q9NZQ7 other isoform, or with tags, fused parts or gaps limits assumed): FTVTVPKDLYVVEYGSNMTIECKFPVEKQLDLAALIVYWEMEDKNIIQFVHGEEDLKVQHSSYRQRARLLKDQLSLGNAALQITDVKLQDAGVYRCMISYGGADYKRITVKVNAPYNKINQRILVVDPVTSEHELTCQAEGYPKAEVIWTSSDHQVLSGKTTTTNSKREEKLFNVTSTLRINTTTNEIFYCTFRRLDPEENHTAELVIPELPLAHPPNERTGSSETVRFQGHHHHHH

This assay concerns the target T1, hPDL1(19-239)-TVMV-His (human, UniProt Q9NZQ7 19-239).
T1 construct: The construct name says 19-239, the running text says amino acids 18-239; Expressed in HEK293T cells; also called PD-L1-His; PD-L1-TVMV-His
In words: HTRF competition, PD-1-Ig (20 nM) binding to human PD-L1-His (10 nM). How it is done: All binding studies were performed in an HTRF assay buffer consisting of dPBS supplemented with 0.1% (w/v) bovine serum albumin and 0.05% (v/v) Tween-20. […] PD-L1 fusion proteins from either human, cynomologous macaques, or mouse were used. HTRF detection was achieved using europium crypate-labeled anti-Ig monoclonal antibody (1 nM final) and allophycocyanin (APC) labeled anti-His monoclonal antibody (20 nM final). Antibodies were diluted in HTRF detection buffer and 5 μl was dispensed on top of binding reaction. The reaction was allowed to equilibrate for 30 minutes and signal (665 nm/620 nm ratio) was obtained using an EnVision fluorometer. […]
HTRF Experiments were performed essentially as outlined supra. Variant macrocyclic peptides were created as outlined herein.
Broadly, the IC50 is the point on the concentration scale where inhibition reaches its midpoint. A higher IC50 goes with lower potency. The molecule B1 displayed an IC50 of 8680 nM.
Next, B2: 3660 nM; B3: 26 nM; B4: 34 nM.
Take B5: the 50% inhibitory concentration (IC50) was 13 nM.
The value for B6 was 31 nM; that for B7 was 475 nM; that for B8 was 4 nM.
The value for B9 was 23 nM; that for B10 was 144 nM.
For B11, the IC50 was found to be 43 nM.
With B12, the IC50 worked out at 7 nM.
Regarding B13, the IC50 is 43 nM.
As to B14, the IC50 is 24 nM.
